Test results: PMC13049129

Target: HnRNPA3-Myc (Homo sapiens) (UniProt P51991)
Experiment: EMSA
Conditions: RNA-EMSA: 40 mM Tris pH 7.4, 30 mM KCl, 1 mM MgCl2, 0.1% IGEPAL CA-630, 1 mM DTT, 10 ug/ml BSA, 37 C, 30 min; 15% polyacrylamide gel stated to contain 8 M urea.

HnRNPA3-Myc (Homo sapiens), sequence (P51991 whole entry): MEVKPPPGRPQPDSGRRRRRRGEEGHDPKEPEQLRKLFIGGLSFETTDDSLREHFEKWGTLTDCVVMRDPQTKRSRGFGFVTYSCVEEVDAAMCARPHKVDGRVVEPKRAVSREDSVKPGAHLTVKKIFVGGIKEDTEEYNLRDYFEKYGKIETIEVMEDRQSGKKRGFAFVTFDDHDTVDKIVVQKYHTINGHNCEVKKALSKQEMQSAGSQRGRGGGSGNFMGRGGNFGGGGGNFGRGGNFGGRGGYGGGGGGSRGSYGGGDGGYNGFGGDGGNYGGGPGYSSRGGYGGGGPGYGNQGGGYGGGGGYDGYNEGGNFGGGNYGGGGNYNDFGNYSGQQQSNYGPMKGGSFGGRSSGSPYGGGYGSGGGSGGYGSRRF

Q: Which binding does the source give for “GGGAUGUUAAAGAUGAGCGGGUGGCAGCGACAGAGCCAAAAUCAGAGCUGGAACCUGAGGAGAGAGUGUUCAAGAAGGAAGUGUAUCUUCAUACAUCACCACACCUGAAA [huORFchop RNA (105 nt)]” here?
A: Its binding is “binds”.
